Results published in PMC8386104 (RSC Chemical Biology, 2020).

What was measured:
[1] = target: MDM2 (UniProt Q00987 1-491); experiment: fluorescence polarisation
[2] = target: T1, MDMX (UniProt O15151 1-490); experiment: fluorescence polarisation
T1 sequence: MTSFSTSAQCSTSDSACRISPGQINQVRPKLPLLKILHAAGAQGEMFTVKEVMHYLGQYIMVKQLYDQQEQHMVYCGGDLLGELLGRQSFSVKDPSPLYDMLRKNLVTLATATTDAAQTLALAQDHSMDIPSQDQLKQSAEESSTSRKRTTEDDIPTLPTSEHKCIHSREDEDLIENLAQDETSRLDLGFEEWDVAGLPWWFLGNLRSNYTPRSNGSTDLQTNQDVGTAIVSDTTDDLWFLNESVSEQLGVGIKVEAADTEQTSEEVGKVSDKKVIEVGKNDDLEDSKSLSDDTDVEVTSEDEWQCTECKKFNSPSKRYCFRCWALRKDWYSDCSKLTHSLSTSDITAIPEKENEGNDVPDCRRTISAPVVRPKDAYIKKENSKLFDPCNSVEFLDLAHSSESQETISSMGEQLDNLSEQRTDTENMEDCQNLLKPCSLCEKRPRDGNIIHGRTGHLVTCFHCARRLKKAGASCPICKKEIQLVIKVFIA

Sequence of MDM2 (Q00987 whole entry): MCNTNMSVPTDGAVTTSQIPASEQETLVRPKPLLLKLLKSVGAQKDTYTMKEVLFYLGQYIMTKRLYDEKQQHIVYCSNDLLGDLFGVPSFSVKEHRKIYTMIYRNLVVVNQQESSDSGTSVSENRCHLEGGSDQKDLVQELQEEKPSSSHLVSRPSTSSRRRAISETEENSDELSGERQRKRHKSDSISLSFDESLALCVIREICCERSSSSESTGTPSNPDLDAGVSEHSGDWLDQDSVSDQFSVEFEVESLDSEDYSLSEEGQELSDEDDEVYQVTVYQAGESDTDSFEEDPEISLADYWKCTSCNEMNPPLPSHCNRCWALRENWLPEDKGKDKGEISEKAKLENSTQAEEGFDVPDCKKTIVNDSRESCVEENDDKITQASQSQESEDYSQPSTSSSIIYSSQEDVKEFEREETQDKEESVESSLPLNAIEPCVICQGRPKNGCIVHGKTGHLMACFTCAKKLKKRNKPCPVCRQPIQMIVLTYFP

B1: PF4P_pDI (designed binder)
chain: LTFEHYWALLT
modifications: C-terminal amide
[1]
  IC50: < 1 nM
[2]
  IC50: < 1 nM
